Experimental data reported in patent US8313731B2 (priority 2002, dated 2012).

System: HeLa cells
Format: cell-based, Human

B1: Holo-neocarzinostatin (protein, UniProt P0A3R9 35-147, looked up)
Neocarzinostatin: AAPTATVTPSSGLSDGTVVKVAGAGLQAGTAYDVGQCAWVDTGVLACNPADFSSVTADANGSASTSLTVRRSFEGFLFDGTRWGTVDCTTAACQVGLSDAAGNGPEGVAISFN
modifications: enediyne chromophore bound
cell survival: ≥ 90%
incubation time within which full cytotoxic effect develops (37° C.): ≤ 6 min
IC50 (read-out: concentration of drug that kills 50% of the cell population): 710 ± 50 pM
